Key:
[1] = substrate: C[C@H](N)C(=O)O; test: Km value for Alanine racemase from Pseudomonas aeruginosa
[2] = substrate: NC(CCl)P(=O)(O)O; settings: Pseudomonas aeruginosa
Description: Km for Alanine racemase from Pseudomonas aeruginosa

B1: Alanine racemase, biosynthetic (Escherichia coli K-12), P0A6B4 (protein)
chain: MQAATVVINRRALRHNLQRLRELAPASKMVAVVKANAYGHGLLETARTLPDADAFGVARLEEALRLRAGGITKPVLLLEGFFDARDLPTISAQHFHTAVHNEEQLAALEEASLDEPVTVWMKLDTGMHRLGVRPEQAEAFYHRLTQCKNVRQPVNIVSHFARADEPKCGATEKQLAIFNTFCEGKPGQRSIAASGGILLWPQSHFDWVRPGIILYGVSPLEDRSTGADFGCQPVMSLTSSLIAVREHKAGEPVGYGGTWVSERDTRLGVVAMGYGDGYPRAAPSGTPVLVNGREVPIVGRVAMDMICVDLGPQAQDKAGDPVILWGEGLPVERIAEMTKVSAYELITRLTSRVAMKYVD
Km [1]: 14.2 mM
Km [2]: 8 mM
